Publication PMC8570598

Molecular target: Rat tail collagen-I (polymerized fibrillar collagen type I) (rat) (UniProt P02454)
Experiment: FRAP

UniProt P02454, sequence (P02454 152-1207, chain 1 of 2): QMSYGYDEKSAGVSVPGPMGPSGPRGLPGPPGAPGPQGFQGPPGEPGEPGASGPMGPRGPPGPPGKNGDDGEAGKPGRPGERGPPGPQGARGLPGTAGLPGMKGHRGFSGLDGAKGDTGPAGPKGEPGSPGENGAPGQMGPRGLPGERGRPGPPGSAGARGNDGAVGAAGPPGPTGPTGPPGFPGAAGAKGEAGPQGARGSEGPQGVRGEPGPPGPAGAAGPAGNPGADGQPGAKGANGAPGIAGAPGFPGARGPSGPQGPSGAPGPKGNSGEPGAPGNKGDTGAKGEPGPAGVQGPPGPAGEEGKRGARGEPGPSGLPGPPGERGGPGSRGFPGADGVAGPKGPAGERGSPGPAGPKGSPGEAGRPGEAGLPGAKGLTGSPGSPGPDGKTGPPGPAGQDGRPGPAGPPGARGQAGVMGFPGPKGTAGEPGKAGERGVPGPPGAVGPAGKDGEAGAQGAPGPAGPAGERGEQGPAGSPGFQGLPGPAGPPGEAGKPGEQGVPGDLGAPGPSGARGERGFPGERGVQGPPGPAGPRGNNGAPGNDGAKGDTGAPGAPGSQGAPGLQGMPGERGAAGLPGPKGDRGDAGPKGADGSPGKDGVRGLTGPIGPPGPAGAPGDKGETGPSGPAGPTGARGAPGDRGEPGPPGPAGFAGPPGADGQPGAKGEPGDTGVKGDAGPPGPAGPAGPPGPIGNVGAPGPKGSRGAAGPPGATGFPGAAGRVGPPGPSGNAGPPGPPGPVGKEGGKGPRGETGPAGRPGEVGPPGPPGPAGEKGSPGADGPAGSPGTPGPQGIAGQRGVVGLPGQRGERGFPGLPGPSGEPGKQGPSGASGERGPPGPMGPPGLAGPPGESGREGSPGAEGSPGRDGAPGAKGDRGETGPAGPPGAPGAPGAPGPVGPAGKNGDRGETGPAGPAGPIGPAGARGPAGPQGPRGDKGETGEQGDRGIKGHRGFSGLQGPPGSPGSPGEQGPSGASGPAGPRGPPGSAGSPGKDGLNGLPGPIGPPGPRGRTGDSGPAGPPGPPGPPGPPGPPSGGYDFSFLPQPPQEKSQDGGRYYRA
UniProt P02454, sequence (P02466 86-1125, chain 2 of 2, further chain): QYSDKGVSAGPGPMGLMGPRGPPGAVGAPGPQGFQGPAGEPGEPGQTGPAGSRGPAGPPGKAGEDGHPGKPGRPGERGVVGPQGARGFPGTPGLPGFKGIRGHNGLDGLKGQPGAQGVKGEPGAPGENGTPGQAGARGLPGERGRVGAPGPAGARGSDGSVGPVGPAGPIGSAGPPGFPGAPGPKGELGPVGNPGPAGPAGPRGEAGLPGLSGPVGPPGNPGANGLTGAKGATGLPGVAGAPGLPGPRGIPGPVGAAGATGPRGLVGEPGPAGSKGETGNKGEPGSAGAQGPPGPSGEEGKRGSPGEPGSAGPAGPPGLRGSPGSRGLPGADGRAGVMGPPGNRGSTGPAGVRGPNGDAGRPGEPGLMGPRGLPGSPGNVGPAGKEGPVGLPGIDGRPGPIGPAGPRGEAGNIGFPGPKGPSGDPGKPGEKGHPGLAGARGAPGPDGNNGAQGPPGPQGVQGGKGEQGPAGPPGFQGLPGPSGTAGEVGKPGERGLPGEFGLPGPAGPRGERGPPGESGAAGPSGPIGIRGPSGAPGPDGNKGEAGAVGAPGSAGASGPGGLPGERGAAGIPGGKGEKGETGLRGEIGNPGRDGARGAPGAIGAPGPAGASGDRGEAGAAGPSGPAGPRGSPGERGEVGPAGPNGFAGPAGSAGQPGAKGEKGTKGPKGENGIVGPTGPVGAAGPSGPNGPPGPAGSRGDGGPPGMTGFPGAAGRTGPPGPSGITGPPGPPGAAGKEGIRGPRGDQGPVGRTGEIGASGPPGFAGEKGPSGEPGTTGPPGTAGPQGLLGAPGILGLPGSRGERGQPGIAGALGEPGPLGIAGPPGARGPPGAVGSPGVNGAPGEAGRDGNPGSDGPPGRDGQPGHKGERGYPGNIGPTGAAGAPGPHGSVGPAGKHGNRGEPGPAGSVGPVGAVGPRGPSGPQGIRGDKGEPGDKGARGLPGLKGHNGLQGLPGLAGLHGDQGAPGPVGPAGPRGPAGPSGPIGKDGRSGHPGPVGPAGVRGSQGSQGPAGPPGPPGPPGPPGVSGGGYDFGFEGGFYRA

mobile fraction (FRAP, free Alexa488-EGF in the medium): 50%
Substance: Alexa488-labeled epidermal growth factor (EGF) (ligand)
